Reference: patent publication US20050239140A1 (Janssen / Centocor, published 2005)

T1: murine Tissue Factor in murine brain extracts (murine, UniProt P20352 29-294)
T1 sequence (looked up): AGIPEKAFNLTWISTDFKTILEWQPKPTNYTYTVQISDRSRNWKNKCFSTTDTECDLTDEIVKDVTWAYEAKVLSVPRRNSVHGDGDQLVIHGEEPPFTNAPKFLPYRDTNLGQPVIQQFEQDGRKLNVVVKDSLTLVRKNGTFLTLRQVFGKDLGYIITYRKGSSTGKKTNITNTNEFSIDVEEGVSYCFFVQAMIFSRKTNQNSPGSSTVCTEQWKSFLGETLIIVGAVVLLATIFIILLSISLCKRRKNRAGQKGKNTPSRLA

T2: murine Tissue Factor on B6F10 melanoma cells (murine, UniProt P20352 29-294)
T2 construct: whole, on cells; also called cell-associated mTF
T2 sequence (looked up): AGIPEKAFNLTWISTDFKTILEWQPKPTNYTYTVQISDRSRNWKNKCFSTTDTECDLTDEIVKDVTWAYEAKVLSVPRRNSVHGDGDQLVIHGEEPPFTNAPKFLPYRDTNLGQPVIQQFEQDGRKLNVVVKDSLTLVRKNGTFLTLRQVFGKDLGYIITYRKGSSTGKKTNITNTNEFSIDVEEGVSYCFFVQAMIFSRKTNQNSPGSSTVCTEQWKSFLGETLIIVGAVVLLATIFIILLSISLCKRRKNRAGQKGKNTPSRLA


How the values were obtained:
[1] = target: T1, murine Tissue Factor in murine brain …; assay: cell-based or functional assay
[2] = target: T2, murine Tissue Factor on B6F10 melanoma …; assay: FACS on B6F10 melanoma cells that express mTF

Binder | EC50 Conc. (ug/ml), inhibition of fibrin clot formation in human plasma with murine brain extracts as source of mTF [1] | EC50 [2]
PHD104 Fab (Fab, V domains shown) VH: QVQLVQSGAEVKKPGESLKISCKGSYSFTSNWIGWVRQMPGKGLEWMGWIYPSDSMTRYSPSFQGQVTISADKSISTAYLQWSSLKASDTAMYYCARYLFGLFDNWGQGTLVTVSS VL: DIELTQPPSVSVAPGQTARISCSGDNLGSYYVSWYQQKPGQAPVLVIYNDNNRPSGIPERFSGSNSGNTATLTISGTQAEDEADYYCATYDSSTDVFGGGTKLTVLG | 23.8 µg/mL | –
PHD103 Fab (Fab, V domains shown) VH: QVQLVQSGAEVKKPGESLKISCKGSGYSFSNSWIAWVRQMPGKGLEWMGGIIGPGHSYTKYSPSFQGQVTISADKSISTAYLQWSSLKASDTAMYYCARINMGYFDYWGQGTLVTVSS VL: DIELTQPPSVSVAPGQTARISCSGDSLGLKKFVSWYQQKPGQAPVLVIYDDSNRPSGIPERFSGSNSGNTATLTISGTQAEDEADYYCGTYDQTIGHDVVFGGGTKLTVLG | 63.3 µg/mL | –

Second part, the binder after the results:

EC50 Conc. (ug/ml), inhibition of fibrin clot formation in human plasma with murine brain extracts as source of mTF [1] | EC50 [2] | Binder
0.23 µg/mL | – | PHD126 Fab (Fab, V domains shown) VH: QVQLVQSGAEVKKPGESLKISCKGSYSFSNYWIGWVRQMPGKGLEWMGFIDPDDSDTNYSPSFQGQVTISADKSISTAYLQWSSLKASDTAMYYCARALYMQGGSFDSWGQGTLVTVSS VL: DIELTQPPSVSVAPGQTARISCSGDNLGSYYVSWYQQKPGQAPVLVIYRDTDRPSGIPERFSGSNSGNTATLTISGTQAEDEADYYCQSYDYGVSNQVFGGGTKLTVLG
0.82 µg/mL | 4.35 nM | PHD127 Fab (Fab, V domains shown, HuCAL Fab; The assignment of 8 (VH) and 9 (VL) to PHD127 follows the order of listing) VH: QVQLVQSGAEVKKPGESLKISCKGSYSFTNSWISWVRQMPGKGLEWMGIIDPDDSYTSYSPSFQGQVTISADKSISTAYLQWSSLKASDTAMYYCARGAGYGRMFGDVWGQGTLVTVSS VL: DIELTQPPSVSVAPGQTARISCSGDNLGSYYASWYQQKPGQAPVLVIYQDDNRPSGIPERFSGSNSGNTATLTISGTQAEDEADYYCGAYTYSTSWVFGGGTKLTVLG
